pKd: −log10 of the molar value.
What was measured:
FITC-casein [1] = assay: fluorescence polarisation; fluorescence anisotropy; ClpB E279Q/E678Q titrated into 100-nM FITC-casein with 5-mM ATP and 80-μM DBeQ; fit of a binding isotherm with a Hill number
FITC-casein [2] = assay: fluorescence polarisation; fluorescence anisotropy; ClpB E279Q/E678Q titrated into 100-nM FITC-casein with 5-mM ATP, without DBeQ; fit of a binding isotherm with a Hill number

## ClpB E279Q/E678Q (from UniProt P63284 1-857) (enzyme)
FITC-casein [1]
  pKd: 7.11
FITC-casein [2]
  pKd: 7.11
